Laboratory results published in the supplement of paper PMC12764529.
± gives the half width of the 95% confidence interval.

What was measured:
[1] = folding stability dG unfold from chymotrypsin proteolysis; higher = more stable
Summary of the method: (§1)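 Designed mini-proteins with no cysteine and under 80 residues were kept only if AlphaFold2 dimer inter-PAE was above 15. In a PA-tagged cDNA display construct, they were digested with trypsin and chymotrypsin and then sequenced. K50 was inferred by Bayesian fitting of counts, and unfolding free energy was derived per protease or combined against a sequence-predicted unfolded-state K50 and a shared folded-state K50.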

[2] = folding stability dG unfold from trypsin proteolysis; higher = more stable
Summary of the method: as §1

[3] = folding stability dG unfold (combined trypsin and chymotrypsin); higher = more stable
Summary of the method: as §1

Row | Sequence | folding stability dG unfold [1] [kcal/mol] | folding stability dG unfold [2] [kcal/mol] | folding stability dG unfold [3] [kcal/mol]
1 | SAGGSAMIEVKIEVPDDASEEEKAELAEKIKKEIKASGVEPTENGIPVKKSLENVEVKVTFLKKKKSAGGSA [r15_717_JUSTAS] | 0.074 ± 0.33 | -0.469 ± 0.2 | -0.196 ± 0.38
2 | SAGGSASMIVKEVKDKVDPAGSVPPDAVIRLETKVDPATGVWTIKVYTEEGKEIGESTVFVKPGILSAGGSA [r15_134_JUSTAS] | 0.629 ± 0.083 | 0.447 ± 0.054 | 0.602 ± 0.069
3 | SAGGGMMTVTVTRVEREKPAGDEYLEKVLVTLPDSTLEATLTLKEKEEADKPPSVTVVPLEAVLALLASAGG [r13_540_JUSTAS] | -0.274 ± 0.31 | 0.927 ± 0.019 | 0.57 ± 0.11
4 | SAGGSAGGSAGDLLKEAVEEAKDSGHPNVPIRFNFPGGTIRITVKVDPKNGKVEIKVEPVSAGGSAGGSAGG [r17_475_TrROS] | 0.445 ± 0.1 | 0.674 ± 0.12 | 0.645 ± 0.29
5 | SAGGVRKIEFRIDLPDPNVTIEEIVERILKELGLKPEEAIVEVLKIEEVEDEDGIPHIRIDVKIYVPDKSAG [r5_528_TrMRF] | 2.98 ± 0.031 | 3.54 ± 0.1 | 3.21 ± 0.059
6 | SAGMEELAKELAEKLAEELPPGWKIVEIKVERLEDGTLRVRITIYRLDENGKLVEKREIEIEIPLEELSAGG [r19_28_TrROS_Hall] | 4.63 ± 0.081 | 3.91 ± 0.22 | 4.5 ± 0.15
7 | SAGTLEEALEDPSNETVEIEIEIPTGEYPLSDPEKVEELAEEKKKEIEKKLKEKGKNVKIIFKVSLKPLSAG [r5_408_JUSTAS] | 0.213 ± 0.15 | 0.366 ± 0.07 | 0.447 ± 0.16
8 | SAGGSAGGSAGGGSVTLKRPGGSEVTLPDVTADSTITTLPDGTTVVTIPGTGKTYVVPSSAGGSAGGSAGGS [r10_1035_JUSTAS] | 0.111 ± 0.2 | 0.604 ± 0.03 | 0.495 ± 0.093
9 | SAGGSAGGSAGGMKTIEITNADGSKATAELLPDGWVKIYFEETGEEKTLPAKDLTITPPSAGGSAGGSAGGS [r10_289_TrROS_Hall] | 0.5 ± 0.013 | 0.423 ± 0.038 | 0.466 ± 0.05
10 | SAGGSAGGSLVIPLPNGGRIEVLEVGEDYVLVRLVDPMPGTNKPRVSEIRLKLPPLKPPPPDKSAGGSAGGS [r12_959_TrMRF] | 2.14 ± 0.032 | 2.36 ± 0.073 | 2.28 ± 0.11
11 | SAGGSAGGSPPPDVPVDVGERVEYHPPGGVVVREYRTPEGRLIRVEIEELEGGELVRRVVLPLSAGGSAGGS [r12_264_JUSTAS] | 1.33 ± 0.07 | 1.14 ± 0.095 | 1.25 ± 0.17
12 | SAGGPEIRLRVRRPVRLTRRELLPDGTWRTLPARPGYEELEITFTGPEETARRLREELERLGYEVEEVSAGG [r13_452_TrMRF] | 2.84 ± 0.066 | 1.76 ± 0.056 | 2.44 ± 0.12
13 | SAGGSAGGSMKTVEITIPFYSTTTDPVPSLGLLKTYLEEPEIKLKISPEEYKKLKKTPILKELSAGGSAGGS [r12_1015_JUSTAS] | 0.412 ± 0.26 | -0.229 ± 0.33 | 0.234 ± 0.27
14 | SAGGSAGGSAMETVYIPKEEVEKDPEKLEEIKEKLKKELEEKGKKVEFKEDPNGGYTITVESAGGSAGGSAG [r3_75_JUSTAS] | 0.855 ± 0.029 | 0.343 ± 0.054 | 0.663 ± 0.13
15 | SADIKIDVTYRRSPGEGRYTMTVRVELPDGKKLAEIPITMPADDPGMSPRQMREWARPIVKKLAKEGLISAG [r14_120_TrROS] | 1.02 ± 0.1 | 0.537 ± 0.12 | 0.889 ± 0.08
16 | SAGGSAGEAYSVVKASWNPETGTLNIVVKNPSTGEQKVYNIKPGNPVIDFPEGSVIESIEINPSPYSAGGSA [r15_959_TrMRF] | 1.03 ± 0.2 | 0.237 ± 0.095 | 0.835 ± 0.11
17 | SAGGSAGGMIIRVEFKNGEVKTFVVKSPEEAKKKLAESLGLKEDEIPLDEIKSVEILNLDEALSSAGGSAGG [r6_586_TrMRF] | 4.1 ± 0.073 | 3.35 ± 0.1 | 3.91 ± 0.073
